Experimental findings from the supplement of paper PMC5998384 are described below.

Series [1] deals with HeLa Kyoto. Description: solubility change mitosis vs G1/S (difference of NP-40 vs SDS log2 ratios) (log2 ratio difference); higher = more soluble in mitosis.
In series [2] the test system is HeLa Kyoto. Description: solubility in G1/S (NP-40 vs SDS abundance) (log2 ratio); higher = more soluble. To be noted: cell cycle stage: G1/S.
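For solubility change mitosis vs G1/S (difference of NP-40 vs SDS log2 ratios) in this document: synchronized HeLa Kyoto cells (double thymidine block for G1/S, nocodazole release for mitosis), protein amounts in NP-40 versus SDS lysates quantified by mass spectrometry, three biological replicates.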
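For solubility in G1/S (NP-40 vs SDS abundance) in this document: HeLa Kyoto cells arrested at G1/S by double thymidine block, proteins quantified by TMT10plex mass spectrometry in mild NP-40 versus SDS extracts, three biological replicates.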

Regarding “MSSPGIDGDPKPPCLPRNGLVKLPGQPNGLGAASITKGTPATKNRPCQPPPPPTLPPPSLAAPLSRAALAGGPCTPAGGPASALAPGHPAERPPLATDEKILNGLFWYFSACEKCVLAQVCKAWRRVLYQPKFWAGLTPVLHAKELYNVLPGGEKEFVNLQGFAARGFEGFCLVGVSDLDICEFIDNYALSKKGVKAMSLKRSTITDAGLEVMLEQMQGVVRLELSGCNDFTEAGLWSSLSARITSLSVSDCINVADDAIAAISQLLPNLAELSLQAYHVTDTALAYFTARQGHSTHTLRLLSCWEITNHGVVNVVHSLPNLTALSLSGCSKVTDDGVELVAENLRKLRSLDLSWCPRITDMALEYVACDLHRLEELVLDRCVRITDTGLSYLSTMSSLRSLYLRWCCQVQDFGLKHLLALGSLRLLSLAGCPLLTTTGLSGLVQLQELEELELTNCPGATPELFKYFSQHLPRCLVIE [FBXL16]”, in the series on HeLa Kyoto [1], the “solubility change mitosis (log2)” value came to 0.212. In addition, the “solubility in G1/S (log2)” value in the series with HeLa Kyoto [2] was 0.0543.
Regarding “MSSPPEGKLETKAGHPPAVKAGGMRIVQKHPHTGDTKEEKDKDDQEWESPSPPKPTVFISGVIARGDKDFPPAAAQVAHQKPHASMDKHPSPRTQHIQQPRK [DAP]”, in the series on HeLa Kyoto [1], the “solubility change mitosis (log2)” value was 0.309. In the series with HeLa Kyoto [2], the “solubility in G1/S (log2)” value was -0.1.
Taken in the same sequence, the figures for “MSTAMNFGTKSFQPRPPDKGSFPLDHLGECKSFKEKFMKCLHNNNFENALCRKESKEYLECRMERKLMLQEPLEKLGFGDLTSGKSEAKK [COX19]” were 0.143 and 0.00408.
For the sequence “MSTQDERQINTEYAVSLLEQLKLFYEQQLFTDIVLIVEGTEFPCHKMVLATCSSYFRAMFMSGLSESKQTHVHLRNVDAATLQIIITYAYTGNLAMNDSTVEQLYETACFLQVEDVLQRCREYLIKKINAENCVRLLSFADLFSCEELKQSAKRMVEHKFTAVYHQDAFMQLSHDLLIDILSSDNLNVEKEETVREAAMLWLEYNTESRSQYLSSVLSQIRIDALSEVTQRAWFQGLPPNDKSVVVQGLYKSMPKFFKPRLGMTKEEMMIFIEASSENPCSLYSSVCYSPQAEKVYKLCSPPADLHKVGTVVTPDNDIYIAGGQVPLKNTKTNHSKTSKLQTAFRTVNCFYWFDAQQNTWFPKTPMLFVRIKPSLVCCEGYIYAIGGDSVGGELNRRTVERYDTEKDEWTMVSPLPCAWQWSAAVVVHDCIYVMTLNLMYCYFPRSDSWVEMAMRQTSRSFASAAAFGDKIFYIGGLHIATNSGIRLPSGTVDGSSVTVEIYDVNKNEWKMAANIPAKRYSDPCVRAVVISNSLCVFMRETHLNERAKYVTYQYDLELDRWSLRQHISERVLWDLGRDFRCTVGKLYPSCLEESPWKPPTYLFSTDGTEEFELDGEMVALPPV [KBTBD2]”, the “solubility change mitosis (log2)” value in the series with HeLa Kyoto [1] is -0.00685. Also, the “solubility in G1/S (log2)” value with HeLa Kyoto [2] is -0.319.
The corresponding values for “MSVDKAELCGSLLTWLQTFHVPSPCASPQDLSSGLAVAYVLNQIDPSWFNEAWLQGISEDPGPNWKLKVSNLKMVLRSLVEYSQDVLAHPVSEEHLPDVSLIGEFSDPAELGKLLQLVLGCAISCEKKQDHIQRIMTLEESVQHVVMEAIQELMTKDTPDSLSPETYGNFDSQSRRYYFLSEEAEEGDELQQRCLDLERQLMLLSEEKQSLAQENAGLRERMGRPEGEGTPGLTAKKLLLLQSQLEQLQEENFRLESGREDERLRCAELEREVAELQHRNQALTSLAQEAQALKDEMDELRQSSERAGQLEATLTSCRRRLGELRELRRQVRQLEERNAGHAERTRQLEDELRRAGSLRAQLEAQRRQVQELQGQRQEEAMKAEKWLFECRNLEEKYESVTKEKERLLAERDSLREANEELRCAQLQPRGLTQADPSLDPTSTPVDNLAAEILPAELRETLLRLQLENKRLCRQEAADRERQEELQRHLEDANRARHGLETQHRLNQQQLSELRAQVEDLQKALQEQGGKTEDAISILLKRKLEEHLQKLHEADLELQRKREYIEELEPPTDSSTARRIEELQHNLQKKDADLRAMEERYRRYVDKARMVMQTMEPKQRPAAGAPPELHSLRTQLRERDVRIRHLEMDFEKSRSQREQEEKLLISAWYNMGMALQQRAGEERAPAHAQSFLAQQRLATNSRRGPLGRLASLNLRPTDKH [HOOK2]” are -0.0619 and 0.231.
The corresponding values for “MSWIPFKIGQPKKQIVPKTVERDFEREYGKLQQLEEQTRRLQKDMKKSTDADLAMSKSAVKISLDLLSNPLCEQDQDLLNMVTALDTAMKRMDAFNQEKVNQIQKTVIEPLKKFGSVFPSLNMAVKRREQALQDYRRLQAKVEKYEEKEKTGPVLAKLHQAREELRPVREDFEAKNRQLLEEMPRFYGSRLDYFQPSFESLIRAQVVYYSEMHKIFGDLSHQLDQPGHSDEQRERENEAKLSELRALSIVADD [BIN3]” are 0.0471 and 0.418.
Taken in the same sequence, the figures for “MSWLLFLAHRVALAALPCRRGSRGFGMFYAVRRGRKTGVFLTWNECRAQVDRFPAARFKKFATEDEAWAFVRKSASPEVSEGHENQHGQESEAKASKRLREPLDGDGHESAEPYAKHMKPSVEPAPPVSRDTFSYMGDFVVVYTDGCCSSNGRRRPRAGIGVYWGPGHPLNVGIRLPGRQTNQRAEIHAACKAIEQAKTQNINKLVLYTDSMFTINGITNWVQGWKKNGWKTSAGKEVINKEDFVALERLTQGMDIQWMHVPGHSGFIGNEEADRLAREGAKQSED [RNASEH1]” were -0.0935 and 0.274.
In the case of “MTALSARMLTRSRSLGPGAGPRGCREEPGPLRRREAAAEARKSHSPVKRPRKAQRLRVAYEGSDSEKGEGAEPLKVPVWEPQDWQQQLVNIRAMRNKKDAPVDHLGTEHCYDSSAPPKVRRYQVLLSLMLSSQTKDQVTAGAMQRLRARGLTVDSILQTDDATLGKLIYPVGFWRSKVKYIKQTSAILQQHYGGDIPASVAELVALPGVGPKMAHLAMAVAWGTVSGIAVDTHVHRIANRLRWTKKATKSPEETRAALEEWLPRELWHEINGLLVGFGQQTCLPVHPRCHACLNQALCPAAQGL [NTHL1]”, the “solubility change mitosis (log2)” value in the series with HeLa Kyoto [1] is 0.29. Moreover, the “solubility in G1/S (log2)” value in the series on HeLa Kyoto [2] was found to be 0.0579.
Taken in the same sequence, the figures for “MTLKASEGESGGSMHTALSDLYLEHLLQKRSRPEAVSHPLNTVTEDMYTNGSPAPGSPAQVKGQEVRKVRLIQFEKVTEEPMGITLKLNEKQSCTVARILHGGMIHRQGSLHVGDEILEINGTNVTNHSVDQLQKAMKETKGMISLKVIPNQQSRLPALQMFMRAQFDYDPKKDNLIPCKEAGLKFATGDIIQIINKDDSNWWQGRVEGSSKESAGLIPSPELQEWRVASMAQSAPSEAPSCSPFGKKKKYKDKYLAKHSSIFDQLDVVSYEEVVRLPAFKRKTLVLIGASGVGRSHIKNALLSQNPEKFVYPVPYTTRPPRKSEEDGKEYHFISTEEMTRNISANEFLEFGSYQGNMFGTKFETVHQIHKQNKIAILDIEPQTLKIVRTAELSPFIVFIAPTDQGTQTEALQQLQKDSEAIRSQYAHYFDLSLVNNGVDETLKKLQEAFDQACSSPQWVPVSWVY [MPP1]” were -0.0545 and 0.098.
For the sequence “MTMGDKKSPTRPKRQAKPAADEGFWDCSVCTFRNSAEAFKCSICDVRKGTSTRKPRINSQLVAQQVAQQYATPPPPKKEKKEKVEKQDKEKPEKDKEISPSVTKKNTNKKTKPKSDILKDPPSEANSIQSANATTKTSETNHTSRPRLKNVDRSTAQQLAVTVGNVTVIITDFKEKTRSSSTSSSTVTSSAGSEQQNQSSSGSESTDKGSSRSSTPKGDMSAVNDESF [RYBP]”, the “solubility change mitosis (log2)” value with HeLa Kyoto [1] was 0.0865. Moreover, the “solubility in G1/S (log2)” value in the series with HeLa Kyoto [2] is 0.252.
Taken in the same sequence, the figures for “MTPVRMQHSLAGQTYAVPLIQPDLRREEAVQQMADALQYLQKVSGDIFSRISQQVEQSRSQVQAIGEKVSLAQAKIEKIKGSKKAIKVFSSAKYPAPERLQEYGSIFTGAQDPGLQRRPRHRIQSKHRPLDERALQEKLKDFPVCVSTKPEPEDDAEEGLGGLPSNISSVSSLLLFNTTENLYKKYVFLDPLAGAVTKTHVMLGAETEEKLFDAPLSISKREQLEQQVPENYFYVPDLGQVPEIDVPSYLPDLPGIANDLMYIADLGPGIAPSAPGTIPELPTFHTEVAEPLKVDLQDGVLTPPPPPPPPPPAPEVLASAPPLPPSTAAPVGQGARQDDSSSSASPSVQGAPREVVDPSGGRATLLESIRQAGGIGKAKLRSMKERKLEKKKQKEQEQVRATSQGGHLMSDLFNKLVMRRKGISGKGPGAGEGPGGAFARVSDSIPPLPPPQQPQAEEDEDDWES [WASH2P]” were 0.0339 and 0.453.
Regarding “MTQDRPLLAVQEALKKCFPVVEEQQGLWQSALRDCQPLLSSLSNLAEQLQAAQNLRFEDVPALRAFPDLKERLRRKQLVAGDIVLDKLGERLAILLKVRDMVSSHVERVFQIYEQHADTVGIDAVLQPSAVSPSVADMLEWLQDIERHYRKSYLKRKYLLSSIQWGDLANIQALPKAWDRISKDEHQDLVQDILLNVSFFLEE [C1ORF109]”, in the series with HeLa Kyoto [1], the “solubility change mitosis (log2)” value was found to be 0.16. In the series with HeLa Kyoto [2], the “solubility in G1/S (log2)” value turned out to be 0.0701.
“MTSKGPEEEHPSVTLFRQYLRIRTVQPKPDYGAAVAFFEETARQLGLGCQKVEVAPGYVVTVLTWPGTNPTLSSILLNSHTDVVPVFKEHWSHDPFEAFKDSEGYIYARGAQDMKCVSIQYLEAVRRLKVEGHRFPRTIHMTFVPDEEVGGHQGMELFVQRPEFHALRAGFALDEGIANPTDAFTVFYSERSPWWVRVTSTGRPGHASRFMEDTAAEKLHKVVNSILAFREKEWQRLQSNPHLKEGSVTSVNLTKLEGGVAYNVIPATMSASFDFRVAPDVDFKAFEEQLQSWCQAAGEGVTLEFAQKWMHPQVTPTDDSNPWWAAFSRVCKDMNLTLEPEIMPAATDNRYIRAVGVPALGFSPMNRTPVLLHDHDERLHEAVFLRGVDIYTRLLPALASVPALPSDS [ACY1]”: the “solubility change mitosis (log2)” value with HeLa Kyoto [1] was -0.0632. In the series on HeLa Kyoto [2], the “solubility in G1/S (log2)” value is 0.288.
The corresponding values for “MTTRQATKDPLLRGVSPTPSKIPVRSQKRTPFPTVTSCAVDQENQDPRRWVQKPPLNIQRPLVDSAGPRPKARHQAETSQRLVGISQPRNPLEELRPSPRGQNVGPGPPAQTEAPGTIEFVADPAALATILSGEGVKSCHLGRQPSLAKRVLVRGSQGGTTQRVQGVRASAYLAPRTPTHRLDPARASCFSRLEGPGPRGRTLCPQRLQALISPSGPSFHPSTRPSFQELRRETAGSSRTSVSQASGLLLETPVQPAFSLPKGEREVVTHSDEGGVASLGLAQRVPLRENREMSHTRDSHDSHLMPSPAPVAQPLPGHVVPCPSPFGRAQRVPSPGPPTLTSYSVLRRLTVQPKTRFTPMPSTPRVQQAQWLRGVSPQSCSEDPALPWEQVAVRLFDQESCIRSLEGSGKPPVATPSGPHSNRTPSLQEVKIQRIGILQQLLRQEVEGLVGGQCVPLNGGSSLDMVELQPLLTEISRTLNATEHNSGTSHLPGLLKHSGLPKPCLPEECGEPQPCPPAEPGPPEAFCRSEPEIPEPSLQEQLEVPEPYPPAEPRPLESCCRSEPEIPESSRQEQLEVPEPCPPAEPRPLESYCRIEPEIPESSRQEQLEVPEPCPPAEPGPLQPSTQGQSGPPGPCPRVELGASEPCTLEHRSLESSLPPCCSQWAPATTSLIFSSQHPLCASPPICSLQSLRPPAGQAGLSNLAPRTLALRERLKSCLTAIHCFHEARLDDECAFYTSRAPPSGPTRVCTNPVATLLEWQDALCFIPVGSAAPQGSP [TROAP]” are 0.651 and 0.0401.
The corresponding values for “MVARVWSLMRFLIKGSVAGGAVYLVYDQELLGPSDKSQAALQKAGEVVPPAMYQFSQYVCQQTGLQIPQLPAPPKIYFPIRDSWNAGIMTVMSALSVAPSKAREYSKEGWEYVKARTK [MIC13]” are 0.449 and 0.091.
